The values below come from US20190015473A1 (MIT, published 2019).

The target in this assay is T1, Sin3A, endogenous in Neuro2A cells (UniProt Q60520 1-1274, limits assumed).
T1 sequence (looked up): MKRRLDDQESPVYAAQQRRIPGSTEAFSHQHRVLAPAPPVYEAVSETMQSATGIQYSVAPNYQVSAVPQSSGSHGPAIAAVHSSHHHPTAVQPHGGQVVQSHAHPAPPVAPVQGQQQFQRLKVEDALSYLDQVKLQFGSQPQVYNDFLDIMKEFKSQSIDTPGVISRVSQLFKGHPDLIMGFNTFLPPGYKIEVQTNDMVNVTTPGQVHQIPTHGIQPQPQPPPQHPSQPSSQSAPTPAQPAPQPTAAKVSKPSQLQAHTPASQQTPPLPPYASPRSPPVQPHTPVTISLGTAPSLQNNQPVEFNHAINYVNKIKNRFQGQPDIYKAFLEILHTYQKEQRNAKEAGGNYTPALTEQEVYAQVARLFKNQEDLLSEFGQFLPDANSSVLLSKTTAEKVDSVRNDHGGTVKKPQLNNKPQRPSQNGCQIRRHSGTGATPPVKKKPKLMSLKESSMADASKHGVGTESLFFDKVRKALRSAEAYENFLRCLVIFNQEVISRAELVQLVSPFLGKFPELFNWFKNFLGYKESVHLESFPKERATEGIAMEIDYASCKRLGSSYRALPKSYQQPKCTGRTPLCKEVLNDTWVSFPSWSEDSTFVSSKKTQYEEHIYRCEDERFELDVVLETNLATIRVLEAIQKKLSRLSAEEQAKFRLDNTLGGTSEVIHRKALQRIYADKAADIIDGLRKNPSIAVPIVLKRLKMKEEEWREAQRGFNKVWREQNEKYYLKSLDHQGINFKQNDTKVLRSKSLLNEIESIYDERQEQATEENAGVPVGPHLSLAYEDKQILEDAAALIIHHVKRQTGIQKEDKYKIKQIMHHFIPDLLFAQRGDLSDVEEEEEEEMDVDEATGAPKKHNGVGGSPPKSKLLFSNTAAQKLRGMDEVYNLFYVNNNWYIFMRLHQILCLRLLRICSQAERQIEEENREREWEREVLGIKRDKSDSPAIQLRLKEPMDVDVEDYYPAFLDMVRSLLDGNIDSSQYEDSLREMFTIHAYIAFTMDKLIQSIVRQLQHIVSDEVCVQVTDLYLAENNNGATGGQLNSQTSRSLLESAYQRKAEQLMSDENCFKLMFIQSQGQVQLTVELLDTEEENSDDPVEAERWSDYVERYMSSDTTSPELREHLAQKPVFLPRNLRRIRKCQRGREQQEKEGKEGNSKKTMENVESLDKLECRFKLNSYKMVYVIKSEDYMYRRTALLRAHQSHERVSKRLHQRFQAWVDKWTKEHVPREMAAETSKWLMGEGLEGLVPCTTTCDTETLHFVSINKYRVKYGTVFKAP
Description: co-immunoprecipitation (anti-Flag) from transfected N2A cells, western blot. On the procedure: Brain tissues or cell pellets were lysed in 50 mM Tris-HCl (pH8.0), 150 mM NaCl, 1 mM EDTA, 1% NP-40, and complete protease inhibitor cocktail (Roche) with 20 strokes using the Dounce tight homogenizer. After centrifugation at 10000×g twice for 10 min, supernatants were subjected to co-immunoprecipitation or western blot analysis (Bio-rad). Two micrograms of anti-HDAC2 antibody (ab12169) or 15 μL of anti-Flag M2 affinity gels (Sigma) were used for immunoprecipitations. The antibodies used for immunoblotting were anti-HDAC2 (1 μg/mL, ab12169), anti-Sp3 (1 μg/mL, sc-644 X), anti-Sin3A (1 μg/mL, Abcam; ab3479), and […] (1:500, Sigma; F2043).
If the divergent C-terminus of HDAC2 alone is capable of binding to Sp3, the HDAC2-Sp3 interaction may potentially be inhibited through over-expression of this domain. To test this, the C-terminal domain of either HDAC2 (termed 2C) or HDAC1 (termed 1C) fused with mCherry, or mCherry alone, was transfected into neuronal N2A cells. Using co-IP experiments it was shown that 2C, but not 1C or mCherry alone, robustly bound to endogenous Sp3 (FIG. 6A). Importantly, binding of 2C to Sin3A, a well characterized partner of the HDAC1/2 complexes that controls cell cycle progression, was not detected.
A general note: In western blotting, separated proteins are transferred to a membrane and probed.

B1: C-terminal domain of HDAC2 (termed 2C) fused with mCherry, flag-tagged (other, UniProt Q92769 390-488, looked up)
chain: VHEDSGDEDGEDPDKRISIRASDKRIACDEEFSDSEDEGEGGRRNVADHKKGAKKARIEEDKKETEDKKTDVKEEDKSKDNSGEKTDTKGTKSEQLSNP
notes: The part order follows the printed name 'mCherry-2C'; the Flag position is unknown; also called mCherry-2C; HDAC2 C-terminal fragment (2C); not shown: Flag tag; mCherry (engineered red fluorescent protein)
In the case of B1, the binding result is “no binding”.
